Experiment [1] deals with T1, human GFRAL (NCBI Ref. Sequence No. NP_997293.2) expressed on HEK293 cells with human RET51 (human, UniProt Q6UXV0 19-394).
T1 sequence (looked up): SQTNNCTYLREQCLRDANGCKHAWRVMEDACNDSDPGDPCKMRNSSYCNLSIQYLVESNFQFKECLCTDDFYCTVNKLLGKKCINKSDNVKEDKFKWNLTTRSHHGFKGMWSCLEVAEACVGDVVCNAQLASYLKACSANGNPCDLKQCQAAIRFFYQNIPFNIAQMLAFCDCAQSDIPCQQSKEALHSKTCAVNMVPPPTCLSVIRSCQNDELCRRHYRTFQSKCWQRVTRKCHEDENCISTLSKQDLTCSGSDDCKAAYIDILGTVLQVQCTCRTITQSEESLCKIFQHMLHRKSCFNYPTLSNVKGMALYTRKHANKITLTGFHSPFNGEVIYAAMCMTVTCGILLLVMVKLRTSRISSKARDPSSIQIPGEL
Nature of the experiment: cell-based or functional assay.

Experiment [2] has as its target T2, HIS-tagged human GFRAL ECD (human, UniProt Q6UXV0 20-338).
T2 construct: Produced in CHOK1 cell derivatives; also called Human GFRAL ECD (D1-D2-D3-ECD) Receptor; soluble human GFRAL extracellular domain
T2 sequence: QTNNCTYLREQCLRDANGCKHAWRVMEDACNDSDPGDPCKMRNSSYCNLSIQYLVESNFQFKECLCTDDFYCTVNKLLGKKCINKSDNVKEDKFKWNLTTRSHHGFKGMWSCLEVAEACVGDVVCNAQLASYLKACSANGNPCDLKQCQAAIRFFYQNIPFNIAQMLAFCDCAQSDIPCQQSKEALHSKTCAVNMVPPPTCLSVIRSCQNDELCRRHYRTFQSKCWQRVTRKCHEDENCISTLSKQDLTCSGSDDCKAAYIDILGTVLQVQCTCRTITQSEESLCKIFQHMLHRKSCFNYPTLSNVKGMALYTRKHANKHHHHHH
Nature of the experiment: SPR, Biacore T200, 25 C; compound captured by immobilized anti-GDF15 antibody, GFRAL ECD as analyte; 1:1 fit. The method, then:
To measure human GDF15 (des-ARN SEQ ID NO:1) or Compound 2 binding to human GFRAL ECD, a Biacore T200 Instrument is used to measure the binding kinetics of human GDF15 homodimer (des-ARN SEQ ID NO:1) and Compound 2 to the GFRAL ECD. Measurements are performed at 25° C. Samples are dissolved in HBS-EP+, pH 7.4 (GE Healthcare; 10 mM HEPES pH 7.4+150 mM NaCl+3 mM EDTA+0.05% surfactant P20). Goat […] GDF15 antibody (R&D) is immobilized on the flow cells of a CM5 sensor chip using amine coupling chemistry. GDF15 samples are prepared at 25 μg/ml by dilution into running buffer.
Human GFRAL ECD samples are prepared at final concentrations of 1000, 500, 250, 125, 62.5, 31.3, 15.6, 7.8, 3.9, 2.0 and 0 (blank) nM by dilution into running buffer. The SPR experiment includes the following steps: (1) capturing GDF15 samples on separate flow cells (Fc2, Fc3 and Fc4), (2) injecting 200 μl of human GFRAL ECD over all flow cells at […], (3) dissociating for 600 sec, (4) regenerating chip surfaces with a 10 μl (30 sec) injection of glycine, pH 1.5, at […], and (5) equilibrating chip surfaces with a 10 μl (30 sec) injection of HBS-EP+ at […]. Each concentration of human GFRAL ECD is injected in duplicate.
Data are processed using standard double-referencing and fit to a 1:1 binding model using Biacore T200 Evaluation Software to determine the association rate (kₒₙ, M⁻¹s⁻¹), dissociation rate (koff, s⁻¹) and maximum response (Rmax; response units (RU)). The equilibrium dissociation constant (KD) is calculated from the relationship KD=koff/kₒₙ (M).

The results in this text go back to patent US20190309033A1 (Eli Lilly, published 2019).

B1: Mature human GDF15 (homodimer of two compounds including SEQ ID NO: 1) (ligand)
chain: ARNGDHCPLGPGRCCRLHTVRASLEDLGWADWVLSPREVQVTMCIGACPSQFRAANMHAQIKTSLHRLKPDTVPAPCCVPASYNPMVLIQKTDTGVSLQTYDDLLAKDCHCI
As to B1, in experiment [1], the “EC50 of ERK1/2 phosphorylation (AlphaLISA pERK1/2) in HEK293 cells expressing human GFRAL and human RET51” value came to 27.9 pM.

B2: Compound 2 (homodimer of two compounds including SEQ ID NO: 2) (Fc fusion)
chain: EAAGGPSVFLFPPKPKDTLMISRTPEVTCVVVDVSQEDPEVQFNWYVDGVEVHNAKTKPREEQFNSTYRVVSVLTVLHQDWLNGKEYKCKVSNKGLPSSIEKTISKAKGQPREPQVYTLPPSQEEMTKNQVSLTCLVKGFYPSDIAVEWESNGQPENNYKTTPPVLDSDGSFQLESRLTVDKSRWQEGNVFSCSVMHEALHNHYTQKSLSLSLGGGGGAPAPAPAPAPAPAPAPAPAPGGGGGDHCPLGPGRCCRLHTVRASLEDLGWADWVLSPREVQVTMCIGACPSQFRAANMHAQIKTSLHRLKPDTVPAPCCVPASYNPMVLIQKTDTGVSLQTYDDLLAKDCHCI
notes: Homodimer linked by at least one interchain disulfide bond between the GDF15 portions; also called homodimer of the Fc-GDF15 Compound 1
Regarding B2, the “EC50 of ERK1/2 phosphorylation (AlphaLISA pERK1/2) in HEK293 cells expressing human GFRAL and human RET51” value in experiment [1] was 86.2 pM. Further, in experiment [2], binding was put at a Kd of 8.3 nM, the dissociation rate constant (koff) was 0.00871 s⁻¹ and the kon stood at 1.05e+06 M⁻¹ s⁻¹.

In general, Kd refers to the concentration at which binding is half-saturated. Low values mean a tighter complex, high ones a looser complex. Usually koff stands for the first-order rate constant of dissociation. A higher koff goes with fast dissociation. Usually kon stands for a measure of how fast the partners come together. Low readings indicate slower complex formation, high ones faster complex formation.
